{
  "source": "patent US20260029420A1",
  "about": "“ANTI-CB2 ANTIBODIES AND THEIR USE IN A FLOW CYTOMETRY ASSAY TO MEASURE CELL SURFACE CB2 EXPRESSION” (Hoffmann-La Roche Inc., priority 2022, published 2026)",
  "molecules": {"B1": {"name": "hCB2-1/622: murine IgG3 monoclonal anti-human CB2 antibody, VH SEQ ID NO: 1, VL SEQ ID NO: 2, HC SEQ ID NO: 3, LC SEQ ID NO: 4 (antibody)", "heavy": "EVQLQQSGPELVKPGASVKISCKTSGYTFTEYTMHWVRQSHGKSLEWIGGIDRYNGDTYYNQKFKDKATLTVDRSSSTAYMELRSLTSEDSAVYFCARNGAMDYWGQGISVTVSSATTTAPSVYPLVPGCSDTSGSSVTLGCLVKGYFPEPVTVKWNYGALSSGVRTVSSVLQSGFYSLSSLVTVPSSTWPSQTVICNVAHPASKTELIKRIEPRIPKPSTPPGSSCPPGNILGGPSVFIFPPKPKDALMISLTPKVTCVVVDVSEDDPDVHVSWFVDNKEVHTAWTQPREAQYNSTFRVVSALPIQHQDWMRGKEFKCKVNNKALPAPIERTISKPKGRAQTPQVYTIPPPREQMSKKKVSLTCLVTNFFSEAISVEWERNGELEQDYKNTPPILDSDGTYFLYSKLTVDTDSWLQGEIFTCSVVHEALHNHHTQKNLSRSPGK", "light": "DVVMTQTPLSLPVSLGDQASISCRSSQSLVHSNGNTYLHWFLQKPGQSPKLLIYKVSIRFSGVPDRFSGSGSGTDFTLKISRVEAEDLGVYFCSQSTHVPPLTFGAGTKLELKRADAAPTVSIFPPSSEQLTSGGASVVCFLNNFYPKDINVKWKIDGSERQNGVLNSWTDQDSKDSTYSMSSTLTLTKDEYERHNSYTCEATHKTSTSPIVKSFNRNEC"}},
  "key": {"[1]": {"target": "T1, pANITA3.1 hCB2 (JB175) (Homo sapiens, UniProt P34972)", "T1 construct": "expressed in transfected cells; host or cells: HEK293", "T1 sequence (P34972 with tags, fused parts or gaps)": "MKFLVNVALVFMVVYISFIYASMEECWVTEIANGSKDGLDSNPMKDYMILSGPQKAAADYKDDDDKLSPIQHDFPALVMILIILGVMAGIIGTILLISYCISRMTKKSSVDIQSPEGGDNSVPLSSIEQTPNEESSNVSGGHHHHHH", "experiment": "Western blot of cell lysates", "assay_type": "binding", "set-up": "key to Western Blot signal intensity: “−” no signal; “+”-“+++++” signal intensity; “+”-“+++++” signal intensity; “+”-“+++++” signal intensity; “+”-“+++++” signal intensity; “+”-“+++++” signal intensity", "description": "(§1) The positive clones (Table 1) were further characterized by immunofluorescence (IF; Table 2), Western Blot (Table 3, 1) and Immune precipitation (Table 4, 2) on full length hCB2, hCB1, mCB2 stable-transfected CHO-cell lines in addition to the 2 pANITA constructs.\n(§2) For Western blot analysis, cells were collected using enzyme free dissociation buffer (Cell dissociation buffer enzyme-free Hanks'-based, Gibco), and washed two times with PBS. To prepare cell lysate, 10^6 cells were lysed with 0.1 ml of lysis buffer (1% NP40, 10% glycerol, 2 mM EDTA, 137 mM NaCl, 20 mM TrisHCl, pH8, Protease Inhibitors) for 10 min on ice. The lysate was cleared by centrifugation at 20′000 g for 5 min. For SDS-PAGE cell lysate was resolved on precast 4-12% gradient gels (NuPAGE® Novex 4-12% Bis-Tris Gel, Invitrogen) with MES running buffer according to the manufacturer's directions. The separation of proteins was visualized by Colloidal Blue staining. The proteins were electrophoretically transferred to nitrocellulose membrane using a dry-blotting system (iBlot, Invitrogen). After blocking the membrane for 16 h in blocking buffer (5% Milk in PBS) at 4° C., specific proteins were detected with appropriate dilutions of mAbs in blocking buffer for 1 h at approximately 20° C. The membrane was then washed four times for 5 minutes in blocking buffer and incubated with horseradish peroxidase conjugated anti-mouse IgG mAb (GAM/IgG (g-chain)/HRP, Sigma, A9917) diluted 1:10'000 in blocking buffer at approximately 20° C. for 1 h. After washing again, blots were developed using ECL Western blotting detection reagents (ECL Western Blotting Substrate, Pierce) to visualize bands.\n(§3) Expression of recombinant proteins in pANITA3.1 transfected cells was confirmed by Western blot analysis using anti-His tag antibodies. Cells expressing rat Glucose-dependent insulinotropic polypeptide receptor (GIPR), also a G-protein coupled receptor, were used as a negative control."}, "[2]": {"target": "T2, pANITA3.1 mCB2 (JB176) (Mus musculus, UniProt P47936)", "T2 construct": "expressed in transfected cells; host or cells: HEK293", "T2 sequence (P47936 with tags, fused parts or gaps)": "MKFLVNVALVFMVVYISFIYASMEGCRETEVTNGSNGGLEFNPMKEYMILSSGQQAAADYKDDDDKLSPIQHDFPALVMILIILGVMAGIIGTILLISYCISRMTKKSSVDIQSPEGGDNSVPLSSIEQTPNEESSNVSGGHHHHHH", "experiment": "Western blot of cell lysates", "assay_type": "binding", "set-up": "key to Western Blot signal intensity: “−” no signal; “+”-“+++++” signal intensity; “+”-“+++++” signal intensity; “+”-“+++++” signal intensity; “+”-“+++++” signal intensity; “+”-“+++++” signal intensity", "description": "as §1, §2, §3"}, "[3]": {"system": "pANITA3.1 ratGIPR (DB388)", "experiment": "Western blot of cell lysates", "assay_type": "binding, rat", "set-up": "key to Western Blot signal intensity: “−” no signal; “+”-“+++++” signal intensity; “+”-“+++++” signal intensity; “+”-“+++++” signal intensity; “+”-“+++++” signal intensity; “+”-“+++++” signal intensity", "description": "as §1\nas §2, with “The membrane was then washed four times for 5 minutes in blocking buffer and incubated with horseradish peroxidase conjugated anti-mouse IgG mAb (GAM/IgG (g-chain)/HRP, Sigma, A9917) diluted 1:10'000 in blocking buffer at approximately 20° C. for 1 h. After washing again, blots were developed using ECL Western blotting detection reagents (ECL Western Blotting Substrate, Pierce) to visualize bands.” left out"}, "[4]": {"target": "T1, pANITA3.1 hCB2 (JB175)", "experiment": "Immunoprecipitation from whole cell lysates", "assay_type": "binding", "set-up": "key to Immunoprecipitation signal intensity: “−” no signal; “+”-“++++” signal intensity; “+”-“++++” signal intensity; “+”-“++++” signal intensity; “+”-“++++” signal intensity", "description": "as §1\n(§4) For immunoprecipitation (IP), whole cell lysates were incubated with the respective antibodies. IP was performed according to established protocols and subsequent western blot as described herein above."}, "[5]": {"target": "T2, pANITA3.1 mCB2 (JB176)", "experiment": "Immunoprecipitation from whole cell lysates", "assay_type": "binding", "set-up": "key to Immunoprecipitation signal intensity: “−” no signal; “+”-“+++++” signal intensity; “+”-“+++++” signal intensity; “+”-“+++++” signal intensity; “+”-“+++++” signal intensity; “+”-“+++++” signal intensity", "description": "as §1, §4"}, "[6]": {"system": "pANITA3.1 ratGIPR (DB388)", "experiment": "Immunoprecipitation from whole cell lysates", "assay_type": "binding, rat", "set-up": "key to Immunoprecipitation signal intensity: “−” no signal; “+”-“+++++” signal intensity; “+”-“+++++” signal intensity; “+”-“+++++” signal intensity; “+”-“+++++” signal intensity; “+”-“+++++” signal intensity", "description": "as §1, §4"}, "[7]": {"target": "T3, CHODukx CRE hCB2 Cl.90 (Homo sapiens, UniProt P34972)", "T3 construct": "expressed in transfected cells", "T3 sequence (P34972 whole entry)": "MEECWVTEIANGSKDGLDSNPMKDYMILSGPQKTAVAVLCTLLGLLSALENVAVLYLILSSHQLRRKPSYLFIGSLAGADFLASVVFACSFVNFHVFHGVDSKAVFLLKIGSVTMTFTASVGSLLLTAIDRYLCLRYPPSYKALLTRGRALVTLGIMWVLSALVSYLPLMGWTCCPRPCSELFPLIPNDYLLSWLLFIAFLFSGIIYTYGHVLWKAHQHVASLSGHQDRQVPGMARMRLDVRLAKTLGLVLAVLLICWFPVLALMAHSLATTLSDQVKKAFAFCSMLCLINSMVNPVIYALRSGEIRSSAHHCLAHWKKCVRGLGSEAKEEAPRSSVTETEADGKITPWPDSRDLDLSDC", "experiment": "Immunoprecipitation from whole cell lysates", "assay_type": "binding", "set-up": "key: “−” no signal; “+”-“++++” signal intensity; “+”-“++++” signal intensity; “+”-“++++” signal intensity; “+”-“++++” signal intensity", "settings": "CHODukx CRE hCB2 Cl.90 lysate", "description": "as §1, §4"}, "[8]": {"system": "CHODukx negative", "experiment": "Immunoprecipitation from whole cell lysates, negative control", "assay_type": "binding", "set-up": "key: “−” no signal; “+”-“+++++” signal intensity; “+”-“+++++” signal intensity; “+”-“+++++” signal intensity; “+”-“+++++” signal intensity; “+”-“+++++” signal intensity", "settings": "CHODukx negative lysate", "description": "as §1, §4"}, "[9]": {"system": "CHO-DUKX parental cells", "experiment": "Flow cytometry on CHO-DUKX cells", "assay_type": "binding", "description": "(§5) FIG. 4: Flow cytometric analysis of hCB2 antibody 1/622 in CHO-DUKX parental and CHO-DUKX_HOMSA_CNR2_Clone_90_CRE-Luc cells transfected with hCB2. For detection an F(ab)2 goat-anti Mouse IgG3 PE antibody was used. The anti-human CB2 antibody 1/622 detects the CB2 in the CHO cells transfected with hCB2 with a signal to background ratio of 10, the CHO-DUKX parental cells are negative."}, "[10]": {"target": "T4, CHO-DUKX_HOMSA_CNR2_Clone_90_CRE-Luc cells transfected with hCB2 (Homo sapiens, UniProt P34972)", "T4 construct": "expressed in transfected cells", "T4 sequence (P34972 whole entry)": "as above", "experiment": "Flow cytometry on CHO-DUKX cells", "assay_type": "binding", "settings": "transfected vs parental untransfected CHO cells", "description": "as §5"}, "[11]": {"settings": "pANITA3.1 ratGIPR (DB388) lysate"}},
  "data": [
    {"molecule": "B1", "values": [
      {"measurement": "Western blot detection", "setting": "[1]; hCB2", "value": "distinct band"},
      {"measurement": "Western Blot signal intensity", "setting": "[1]; pANITA3.1 hCB2 (JB175) lysate", "value": "+++"},
      {"measurement": "Western blot detection", "setting": "[2]; mCB2", "value": "no mCB2, hCB1 or rat GIPR was detected"},
      {"measurement": "Western Blot signal intensity", "setting": "[2]; pANITA3.1 mCB2 (JB176) lysate", "value": "−"},
      {"measurement": "Western Blot signal intensity", "setting": "[3]; [11]", "value": "−"},
      {"measurement": "Western blot detection", "setting": "[3]; rat GIPR", "value": "no mCB2, hCB1 or rat GIPR was detected"},
      {"measurement": "immunoprecipitation binding", "setting": "[4]; hCB2", "value": "specifically binds"},
      {"measurement": "Immunoprecipitation signal intensity", "setting": "[4]; pANITA3.1 hCB2 (JB175) lysate", "value": "++++"},
      {"measurement": "immunoprecipitation cross reactivity", "setting": "[5]; mCB2", "value": "no cross reactivity"},
      {"measurement": "Immunoprecipitation signal intensity", "setting": "[5]; pANITA3.1 mCB2 (JB176) lysate", "value": "−"},
      {"measurement": "Immunoprecipitation signal intensity", "setting": "[6]; [11]", "value": "−"},
      {"measurement": "immunoprecipitation cross reactivity", "setting": "[6]; rat GIPR", "value": "no cross reactivity"},
      {"measurement": "Immunoprecipitation signal intensity", "setting": "[7]", "value": "+"},
      {"measurement": "Immunoprecipitation signal intensity", "setting": "[8]", "value": "−"},
      {"measurement": "flow cytometric detection of CB2", "setting": "[9]", "value": "negative"},
      {"measurement": "signal to noise ratio for detection of human CB2", "setting": "[10]", "value": "good signal to noise ratio"}
    ]}
  ]
}
